Like-named read-outs stand apart in the source and are kept apart here.

Broadly, the Kd is the constant that tells how readily two partners part at equilibrium. Low values mean higher affinity, high ones lower affinity.

Data set [1] concerns the target T1, lambda cI repressor, hexa-histidine-tagged (bacteriophage lambda, UniProt P03034 1-237). The data set can be described thus: filter binding.
For data set [2], the target named is T1, lambda cI repressor, …. The data set can be described thus: filter binding. This is another data set of the same source.

T1 sequence (P03034 whole entry): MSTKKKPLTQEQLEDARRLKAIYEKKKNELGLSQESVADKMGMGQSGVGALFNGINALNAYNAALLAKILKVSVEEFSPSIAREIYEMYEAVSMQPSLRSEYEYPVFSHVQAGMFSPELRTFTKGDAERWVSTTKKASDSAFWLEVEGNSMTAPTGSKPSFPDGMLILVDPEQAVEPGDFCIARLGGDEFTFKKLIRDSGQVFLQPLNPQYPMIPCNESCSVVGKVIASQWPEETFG

B1: aptamer Tarap (Guu(0/-7)) (structured_RNA)
RNA: GGGAUCGACAGGGCUCCCGUUUGGCUCGGCGAAGAUCGCCUGUACUUUGGAAAGCCGAGUCGU
Consider B1, for which the figures for the equilibrium dissociation constant (Kd) in data set [1] and in data set [2] were 264 ± 24 nM and 518 ± 96 nM, respectively.

Source of the values: paper PMC5855949.
